Assay results from US20240101674A1 (OTTIMO PHARMA, published 2024).
Residue numbers refer to the chain shown, from its start. In names and notes the source's numbering stands. One block for each binder: values may come before it.

How the values were obtained:
human VEGFR2 protein [1] = molecular target: T1, human VEGFR2 protein (human, UniProt P35968 20-764); assay: periprep Fab direct binding ELISA (FIG. 1)
T1 construct: Recombinant protein used in ELISA; also called hu VEGFR2; KDR

[2] = molecular target: T2, cynomolgus monkey PD1 human Fc tagged recombinant protein (cynomolgus monkey, UniProt Q15116 25-170 (human entry), limits assumed); assay: periprep Fab direct binding ELISA (FIG. 1)
T2 construct: also called cyno PD1-Fc; cyno PD1; not shown: human Fc tag
T2 chain: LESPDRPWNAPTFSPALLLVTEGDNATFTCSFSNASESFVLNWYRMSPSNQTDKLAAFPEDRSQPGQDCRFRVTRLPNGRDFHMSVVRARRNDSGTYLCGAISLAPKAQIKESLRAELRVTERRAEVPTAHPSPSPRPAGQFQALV

rhesus VEGFR2 protein [3] = molecular target: T3, rhesus VEGFR2 protein (rhesus monkey); assay: periprep Fab direct binding ELISA (FIG. 1)
T3 construct: Recombinant protein used in ELISA; also called rhesus monkey VEGFR2; rh VEGFR2
T3 chain: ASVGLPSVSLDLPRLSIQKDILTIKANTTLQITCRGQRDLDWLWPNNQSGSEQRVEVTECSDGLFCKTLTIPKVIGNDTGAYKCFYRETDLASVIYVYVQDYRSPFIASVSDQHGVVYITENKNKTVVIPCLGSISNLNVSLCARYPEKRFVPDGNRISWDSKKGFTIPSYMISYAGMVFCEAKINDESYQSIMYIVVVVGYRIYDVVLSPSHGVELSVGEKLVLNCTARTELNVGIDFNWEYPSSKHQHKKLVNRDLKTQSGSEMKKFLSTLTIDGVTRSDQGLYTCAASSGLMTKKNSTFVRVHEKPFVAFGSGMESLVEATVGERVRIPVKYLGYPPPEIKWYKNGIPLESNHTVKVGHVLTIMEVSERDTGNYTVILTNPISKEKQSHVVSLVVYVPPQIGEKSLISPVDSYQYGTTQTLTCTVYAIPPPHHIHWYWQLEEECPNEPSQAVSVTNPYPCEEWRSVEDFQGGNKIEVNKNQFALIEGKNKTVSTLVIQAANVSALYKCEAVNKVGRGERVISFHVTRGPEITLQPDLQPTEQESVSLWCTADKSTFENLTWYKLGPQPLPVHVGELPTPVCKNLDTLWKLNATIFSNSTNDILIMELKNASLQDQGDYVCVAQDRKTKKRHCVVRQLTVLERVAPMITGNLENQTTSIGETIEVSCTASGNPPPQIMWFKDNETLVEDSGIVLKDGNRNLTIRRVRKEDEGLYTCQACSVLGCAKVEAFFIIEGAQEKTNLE

[4] = molecular target: T4, biotinylated human PD1-His/AviTag (human, UniProt Q15116 25-170, limits assumed, biotinylated); assay: Alphascreen epitope competition, Fab periprep; competitor hMAb005 IgG1 null on biotinylated human PD1-His/AviTag
T4 construct: also called human PD1 protein (Alphascreen); not shown: His/AviTag
T4 sequence (Q15116 25-170 limits assumed): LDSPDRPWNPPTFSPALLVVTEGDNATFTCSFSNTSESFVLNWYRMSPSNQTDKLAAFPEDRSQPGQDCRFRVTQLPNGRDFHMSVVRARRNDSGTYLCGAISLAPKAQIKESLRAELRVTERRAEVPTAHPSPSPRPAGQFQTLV
Description: FIG. 2A-FIG. 2B. Epitope competition analysis of Fab proteins in Alphascreen Anti-PD1 clones were expressed as Fab in E. coli and peripreps were applied in an epitope competition assay using Alphascreen technology.
The AlphaScreen assay (Perkin Elmer) was performed in a 25 μl final volume in 384-well white microtiter plates (Greiner). The reaction buffer contained 1×PBS pH 7.3 (Oxoid, Cat. nr. BR0014G) and 0.05% (v/v) Tween® 20 (Sigma, Cat. nr. P9416). Periprep samples diluted in reaction buffer were incubated with biotinylated human PD1-His/AviTag at 0.6 nM final concentration for 20 minutes at room temperature. […] The emission of light was measured in the EnVision multilabel plate reader (Perkin Elmer) and analysed using the EnVision manager software. Values were reported as Counts Per Second (CPS) and corrected for crosstalk. Signal reduction percentages were calculated relative to the irrelevant sample.

[5] = molecular target: T5, human PD1 human Fc tagged recombinant protein (human, UniProt Q15116 25-170); assay: periprep Fab direct binding ELISA (FIG. 1)
T5 construct: also called human PD1-Fc; hu PD1; not shown: human Fc tag
T5 sequence (Q15116 25-170 limits assumed): as above

human VEGFR2 protein [6] = molecular target: T1, human VEGFR2 protein; assay: direct titration ELISA, IgG1 null on VEGFR2 protein (FIG. 3B)
rhesus VEGFR2 protein [7] = molecular target: T3, rhesus VEGFR2 protein; assay: as above
[8] = molecular target: T5, human PD1 human Fc tagged recombinant …; assay: direct titration ELISA, IgG1 null on coated PD1-Fc (FIG. 3A)
Description: (§1) Binding and cross-reactivity of the lead panel to the recombinant proteins was initially assessed by binding ELISA. The human PD1 human Fc tagged recombinant protein and the cynomolgus monkey PD1 human Fc tagged recombinant protein were coated to the surface of MaxiSorp™ flat-bottom 96 well plate at 1 μg/ml. The purified Fab or IgG samples were titrated in two fold serial dilutions starting from 500 nM to 0.98 nM and allowed to bind to the coated antigens. The Fabs were detected using mouse anti-c-myc antibody followed by donkey anti-mouse IgG conjugated to horseradish peroxidase. The IgGs were detected using the mouse anti-human IgG conjugated to horseradish peroxidase. Binding signals were visualized with 3,3′,5,5′-Tetramethylbenzidine Substrate Solution (TMB) and the absorbance measured at 450 nm.

[9] = molecular target: T2, cynomolgus monkey PD1 human Fc tagged …; assay: as above
Description: as §1

human VEGFR2 protein [10] = molecular target: T1, human VEGFR2 protein; assay: direct titration ELISA, IgG1 null on VEGFR2 protein (FIG. 12C)

binding result (human VEGFR2 protein [1]): binds
binding result [2]: binds
binding result (rhesus VEGFR2 protein [3]): binds
percentage signal reduction of hMAb005/PD1 interaction [4]: > 75%
B1: MAB02D08 Fab (Fab, V domains shown)
VH: EVQLVESGGGLVQPGGSLRLSCAASGFTFSSYMMSWVRQAPGKGLEWVATISGGGANTYYPDSVKGRFTISRDNAKNSLYLQMNSLRAEDTAVYYCARQLYYFDYWGQGTTVTVSS
VL: DIQMTQSPSSLSASVGDRVTITCLASQESGIWLSWYQQKPGKAPKLLIYTATSLADGVPSRFSGSGSGTDFTLTISSLQPEDFATYYCQQVYSIPWTFGGGTKVEIK
notes: Library-derived clone screened as human IgG1-kappa Fab in E. coli periplasmic extract; also called MAB02D08 (periprep Fab)

binding result [5]: binds
binding result [2]: binds
B2: hMAb005 Fab (Fab, V domains shown)
VH: B1 VH
VL: B1 VL with E28T, S29I, I31T, S34T
notes: Human IgG1-kappa Fab, periplasmically expressed in E. coli, detected via c-myc; also called hMAb005 v-domains expressed as human IgG1 Fab; positive control hMAb005 Fab

binding result (human VEGFR2 protein [6]): binds
binding result (rhesus VEGFR2 protein [7]): binds
binding result [8]: binds
binding result [9]: binds
B3: MAB04 IgG1 null (antibody, V domains shown)
VH: B1 VH
VL: B1 VL with E28G, S29I, I31P, Y92S, S93V, I94T, W96F
notes: Human IgG1 null format (L234A, L235A, G237A) with human C kappa; only variable domains are tied to the clone

binding result (human VEGFR2 protein [6]): binds
binding result (rhesus VEGFR2 protein [7]): binds
binding result [8]: binds
binding result [9]: binds
B4: MAB06 IgG1 null (antibody, V domains shown)
VH: B1 VH
VL: B1 VL with Y92S, S93V, I94T, W96F
notes: as for B3

binding result [8]: binds
binding result [9]: binds
B5: hMAb005 IgG1 null (antibody, V domains shown)
VH: B1 VH
VL: B1 VL with E28T, S29I, I31T, S34T
notes: Tested as human IgG1 null (L234A, L235A, G237A) with human C kappa; also called humanized MAb005

binding result (human VEGFR2 protein [6]): binds
binding result (rhesus VEGFR2 protein [7]): binds
binding result [8]: binds
binding result [9]: binds
B6: MAB05 IgG1 null (antibody, V domains shown)
VH: B1 VH
VL: B1 VL with E28P, S29L, Y92S, S93V, I94T, W96F
notes: as for B3

binding result [8]: binds
binding result [9]: binds
B7: MAB02 IgG1 null (antibody, V domains shown)
VH: B1 VH
VL: B1 VL with E28P, S29L, Y92A, S93E, I94L, W96F, T97G
notes: as for B3

binding result (human VEGFR2 protein [10]): binds
B8: MAB06.8.6 IgG1 null (antibody, V domains shown)
VH: B1 VH with M33L, A56S, T58K, P61V, F103Y
VL: B1 VL with L24R, T50A, T52S, A55Q, D56S, Y92S, S93V, I94T, W96F
notes: Human IgG1 null format; only variable domains are tied to the clone

binding result (human VEGFR2 protein [6]): binds
binding result (rhesus VEGFR2 protein [7]): binds
binding result [8]: binds
binding result [9]: binds
B9: MAB01 IgG1 null (antibody, V domains shown)
VH: B1 VH
VL: B1 VL with E28G, S29I, I31P, Y92A, S93E, I94L, W96F, T97G
notes: as for B3

binding result (human VEGFR2 protein [1]): binds
binding result [2]: binds
binding result (rhesus VEGFR2 protein [3]): binds
percentage signal reduction of hMAb005/PD1 interaction [4]: > 75%
B10: MAB02B03 Fab (Fab, V domains shown)
VH: B1 VH
VL: B1 VL with E28P, S29L
notes: Library-derived clone screened as human IgG1-kappa Fab in E. coli periplasmic extract; also called MAB02B03 (periprep Fab)

binding result (human VEGFR2 protein [1]): binds
binding result [2]: binds
binding result (rhesus VEGFR2 protein [3]): binds
percentage signal reduction of hMAb005/PD1 interaction [4]: 75%
B11: MAB02A03 Fab (Fab, V domains shown)
VH: B1 VH
VL: B1 VL with P8S, E28G, S29I, I31P
notes: Library-derived clone screened as human IgG1-kappa Fab in E. coli periplasmic extract; also called MAB02A03 (periprep Fab)

binding result (human VEGFR2 protein [6]): binds
binding result (rhesus VEGFR2 protein [7]): binds
binding result [9]: binds
B12: MAB02A03 IgG1 null (antibody, V domains shown)
VH: B1 VH
VL: B1 VL with P8S, E28G, S29I, I31P
notes: as for B3

binding result (human VEGFR2 protein [1]): binds
binding result [2]: binds
binding result (rhesus VEGFR2 protein [3]): binds
percentage signal reduction of hMAb005/PD1 interaction [4]: > 75%
B13: MAB05G03 Fab (Fab, V domains shown)
VH: B1 VH
VL: B1 VL with E28T, S29I, I31T, S34T, Y92A, S93E, I94L, W96F, T97G
notes: Library-derived clone screened as human IgG1-kappa Fab in E. coli periplasmic extract; also called MAB05G03 (periprep Fab)

binding result (human VEGFR2 protein [6]): binds
binding result (rhesus VEGFR2 protein [7]): binds
binding result [9]: binds
B14: MAB05G03 IgG1 null (antibody, V domains shown)
VH: B1 VH
VL: B1 VL with E28T, S29I, I31T, S34T, Y92A, S93E, I94L, W96F, T97G
notes: as for B3

binding result (human VEGFR2 protein [10]): binds
B15: MAB06.8.2 IgG1 null (antibody, V domains shown)
VH: B1 VH with M33L, A56S, T58K, P61V, L100V
VL: B1 VL with L24R, T50A, T52S, A55Q, D56S, Y92S, S93V, I94T, W96F
notes: as for B8

binding result (human VEGFR2 protein [6]): binds
binding result (rhesus VEGFR2 protein [7]): binds
binding result [9]: binds
B16: MAB05E08 IgG1 null (antibody, V domains shown)
VH: B1 VH
VL: B1 VL with E28T, S29I, I31T, S34T, Y92S, S93V, I94T, W96F
notes: as for B3

binding result (human VEGFR2 protein [1]): binds
binding result [2]: binds
binding result (rhesus VEGFR2 protein [3]): binds
percentage signal reduction of hMAb005/PD1 interaction [4]: > 75%
B17: MAB05E08 Fab (Fab, V domains shown)
VH: B1 VH
VL: B1 VL with E28T, S29I, I31T, S34T, Y92S, S93V, I94T, W96F
notes: Library-derived clone screened as human IgG1-kappa Fab in E. coli periplasmic extract; also called MAB05E08 (periprep Fab)

binding result (human VEGFR2 protein [6]): binds
binding result (rhesus VEGFR2 protein [7]): binds
binding result [9]: binds
B18: MAB02D08 IgG1 null (antibody, V domains shown)
VH: B1 VH
VL: B1 VL
notes: as for B3

binding result (human VEGFR2 protein [6]): binds
binding result (rhesus VEGFR2 protein [7]): binds
binding result [9]: binds
B19: MAB02B03 IgG1 null (antibody, V domains shown)
VH: B1 VH
VL: B1 VL with E28P, S29L
notes: as for B3
